Assay results taken from patent publication US20250144228A1, “NANOBODY-DRUG ADDUCTS AND USES THEREOF” (priority 2022, published 2025).

Tests used:
[1] = molecular target: mouse IgG2b (Mus musculus, UniProt P01837); format: binding; details: mouse IgG2b-coated ELISA plates
[2] = system: P. falciparum merozoite surface protein 1 (MSP-1) subunits p83, p38, p42; test: ELISA of biotinylated VHHs on plate-bound MSP-1 subunits; format: binding, Plasmodium falciparum; details: streptavidin-HRP and TMB
Experimental: (§1) FIGS. 13A-13D: VHH nanobodies bind specifically to Plasmodium falciparum: merozoite surface protein 1 (MSP-1). FIG. 13A: Schematic of the PfMSP-1 pro-peptide and the four inclusive subunits: p83, p30, p38, and p42. FIG. 13B: Purified […] B4, anti-p38 B8, anti-p42 A6, and anti-p42 G11 VHHs were biotinylated and these VHHs were incubated with plate bound subunits proteins as indicated. Binding ELISA was detected by using streptavidin-HRP and tetramethylbenzidine (TMB). Data are represented as optical density (OD). Error bars show SEM. FIG. 13C: Western blot of VHHs against the three PfMSP-1 subunits, the full length p190 pro-peptide, and some 3D7 lysates from −38-44 hour 3D7 schizonts. FIG. 13D: Flow cytometry on synchronized ˜38-44 hour 3D7 schizonts using fluorescently (Cy5) labeled VHHs.
(§2) Purified VHH nanobodies were biotinylated and tested for specificity toward isolated MSP-1 subunits. Anti-p83 B4, anti-p38 B8, anti-p42 A6, and anti-p42 G11 VHHs were each incubated with plate-bound p83, p38, p42, and p42, and binding to the plates was detected by an enzyme-linked immunoassay (ELISA) using streptavidin-horseradish peroxidase (HRP) and tetramethylbenzidine (TMB). […] Finally, purified VHHs were tested against live ˜38-44 hour 3D7 schizonts in a flow cytometry assay.

[3] = system: PfMSP-1 subunits, full length p190 pro-peptide; format: binding, Plasmodium falciparum
Experimental: as §1, with “FIG.” for “FIGS. 13A-13D: VHH nanobodies bind specifically to Plasmodium falciparum: merozoite surface protein 1 (MSP-1). FIG.”
as §2

[4] = molecular target: T1, PfMSP-1 subunits, full length p190 pro-peptide (Plasmodium falciparum, UniProt Q8I0U8); format: binding
T1 construct: the three PfMSP-1 subunits, the full length p190 pro-peptide
Experimental: as §1, with “FIG.” for “FIGS. 13A-13D: VHH nanobodies bind specifically to Plasmodium falciparum: merozoite surface protein 1 (MSP-1). FIG.”
as §2

T1 sequence (Q8I0U8 20-1699): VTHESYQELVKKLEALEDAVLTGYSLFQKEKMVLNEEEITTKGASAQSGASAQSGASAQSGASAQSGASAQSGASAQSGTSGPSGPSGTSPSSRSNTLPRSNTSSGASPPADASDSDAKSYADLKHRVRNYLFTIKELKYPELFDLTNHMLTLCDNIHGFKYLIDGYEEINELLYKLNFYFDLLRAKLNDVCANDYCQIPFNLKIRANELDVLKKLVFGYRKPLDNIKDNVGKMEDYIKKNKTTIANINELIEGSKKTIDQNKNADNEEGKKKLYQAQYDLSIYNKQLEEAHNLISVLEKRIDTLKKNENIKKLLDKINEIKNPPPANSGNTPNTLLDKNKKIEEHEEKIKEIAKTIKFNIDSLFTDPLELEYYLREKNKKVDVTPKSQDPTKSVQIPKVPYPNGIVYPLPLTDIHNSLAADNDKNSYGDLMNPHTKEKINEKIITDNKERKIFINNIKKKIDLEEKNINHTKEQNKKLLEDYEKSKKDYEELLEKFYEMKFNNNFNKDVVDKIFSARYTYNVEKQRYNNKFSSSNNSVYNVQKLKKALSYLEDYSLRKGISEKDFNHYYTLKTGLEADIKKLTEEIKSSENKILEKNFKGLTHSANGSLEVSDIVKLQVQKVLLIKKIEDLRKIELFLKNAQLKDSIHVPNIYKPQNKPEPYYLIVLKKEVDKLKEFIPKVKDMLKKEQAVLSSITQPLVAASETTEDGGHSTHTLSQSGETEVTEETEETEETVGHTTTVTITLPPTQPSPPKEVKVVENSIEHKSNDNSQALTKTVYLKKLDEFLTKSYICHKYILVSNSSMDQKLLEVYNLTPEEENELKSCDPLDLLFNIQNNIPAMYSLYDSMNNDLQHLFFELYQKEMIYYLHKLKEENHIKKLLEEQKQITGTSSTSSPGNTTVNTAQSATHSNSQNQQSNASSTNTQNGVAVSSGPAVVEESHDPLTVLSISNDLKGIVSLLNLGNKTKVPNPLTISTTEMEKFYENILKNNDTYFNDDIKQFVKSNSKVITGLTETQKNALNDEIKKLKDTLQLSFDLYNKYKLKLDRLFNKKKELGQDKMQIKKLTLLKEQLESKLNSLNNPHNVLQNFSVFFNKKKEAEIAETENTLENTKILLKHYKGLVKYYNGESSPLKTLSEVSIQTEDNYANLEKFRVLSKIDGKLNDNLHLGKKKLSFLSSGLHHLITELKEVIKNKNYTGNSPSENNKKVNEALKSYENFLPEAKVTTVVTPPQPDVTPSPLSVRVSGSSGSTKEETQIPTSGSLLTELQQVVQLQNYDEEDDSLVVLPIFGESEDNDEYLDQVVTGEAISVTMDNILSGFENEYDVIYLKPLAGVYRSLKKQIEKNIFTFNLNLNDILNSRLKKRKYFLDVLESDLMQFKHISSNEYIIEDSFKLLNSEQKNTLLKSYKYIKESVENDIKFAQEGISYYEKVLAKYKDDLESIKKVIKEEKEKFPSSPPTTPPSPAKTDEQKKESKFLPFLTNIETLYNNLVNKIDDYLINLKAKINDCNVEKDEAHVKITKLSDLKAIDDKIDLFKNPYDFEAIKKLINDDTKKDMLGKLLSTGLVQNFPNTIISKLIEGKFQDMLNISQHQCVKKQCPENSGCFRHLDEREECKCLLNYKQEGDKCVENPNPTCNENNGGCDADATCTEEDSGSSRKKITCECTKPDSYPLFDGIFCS

Molecule	binding to mouse IgG2b (in words) [1]	binding to plate-bound MSP-1 subunits (ELISA) [2]	binding to MSP-1 subunits and pro-peptide p190 (gel electrophoresis / Western blot) [3]	binding to lysate from ˜38-44 hour 3D7 schizonts [4]
VHHkappa: commercially available anti-mouse kappa chain VHH (nanobody clone TP1170), SEQ ID NO: 1 (protein) VHH: QVQLVESGGGWVQPGGSLRLSCAASGFTFSDTAMMWVRQAPGKGREWVAAIDTGGGYTYYADSVKGRFTISRDNAKNTLYLQMNSLKPEDTARYYCAKTYSGNYYSNYTVANYGTTGRGTLVTVSSGG	nanomolar affinity			
Anti-p83 B4: VHH specific for P. falciparum MSP-1 p83, SEQ ID NO: 12 (protein) VHH: QLQLVESGGGLAQAGGSLRLSCAASGRTSSTKPMGWFRQAPGLEREFVASISWLGGSTLYSDSVKGRFTISRDNAKNTVYLQMNSLKSEDTAVYYCAGGTSAYSGRDSSRYEYWGQGTQVTVSSLPETGGHHHHHH		bind specifically to one subunit	bind to one subunit of MSP-1 and to the MSP-1 pro-peptide (p190), but not to any other subunit	observed to bind
